The values that follow come from patent US20240327502A1.

Substrate in test [1]: F protein of hMPV A virus (human metapneumovirus subtype A)
Nature of the test: cell-based or functional assay.

Substrate in test [2]: F protein of hMPV B virus (human metapneumovirus subtype B)
Nature of the test: cell-based or functional assay.

Some results are limits rather than exact numbers.

B1: M1A01 (antibody, V domains shown)
VH: QVQLVQSGAEVKKPGSSVKVSCWASGGTFDNAINWLRQAPGQGPEWMGRIIPLVDIVNRAPKFQDRVSFTADKSTNTVYMVLNSLTSDDTAVYYCASAFQDGWFDPWGQGTLVTVSS
VL: EIVLTQSPATLSLSPGERATLSCRASQSLSRYLAWYQQKPGQAPRLLIYDASNRATGVPARFSGSGSGTDFTLTISSLEPEDFAVYYCHQRHNWITFGQGTRLEIK
Consider B1, for which the PRNT IC50 in test [1] was found to be 3.41 µg/mL; in test [2] it was 4 µg/mL.

B2: M3D09 (antibody, V domains shown)
VH: QVQLVESGGGVVQSGKSLGLSCIASGFIFSNYALHWVRQAPGKGLEWLSVISYDGTNKYYANSVRGRFTVSRDNSKNTLFLHMNSLGVDDTAMYYCARDPERLADLGRMDFWGRGTLVAVLS
VL: DIVMTQSPDSLAVSLGERATINCKSSQSVLFSPNNKNYLAWYQQKPGQPPKLLIYWASTREYGVPERFSGSGSGTDFTLTISSLQAEDVAVYYCQQYNSNPYTFGQGTKLEIR
In the case of B2, the figures for the PRNT IC50 in test [1] and in test [2] were 2 µg/mL and 0.28 µg/mL, respectively.

B3: M1A12 (antibody, V domains shown)
VH: QVQLVQSGTEVKKPGSSVKVSCKDPGDIMSSHSIHWVRQAPGQGPEWMGRIIPLFGMKSYAPNFQGRVSISVDTSTNTAYLELSGLKSDDTAVYFCAREENLSWLDYWGQGTQVIVSS
VL: EIVLTQSPATLSLSPGDRATLSCRASLRLSTNIAWYQQKPGQAPRLVIYDASKRATGIPARFSGSGSGTDFTLTISSLEPEDFAVYYCHQHSNWYTFGQGTKLEIK
B3: the PRNT IC50 was 1.51 µg/mL in test [1] and 5 µg/mL in test [2].

B4: M6E10 (antibody, V domains shown)
VH: QVQLVQSGAEVKKPGSSVKVSCNASGGIFDTNVINWVRQAPGQGLEWMGGIIPPFGTALYAHQFQGRLTLTVDESTNTAYMDLSSLRSDDTAVYFCARDRTVIKYADGMDVWGQGTTVTVSS
VL: DIQMTQSPSSLSASVGDKVAITCRASQTISPYLNWYQQKPGKAPNLLIYGTNKLQSGVPLRFSGSGSGTDFTLTINGLQPEDFATYFCQQSHTTPLTFGGGTKVEIKR
B4: the PRNT IC50 in test [1] was determined as 0.0237 µg/mL; in test [2], 0.0104 µg/mL.

B5: M4B01 (antibody, V domains shown)
VH: EVQLLESGGGLVQPGGSLRLSCAASGFNFNTYAMSWVRQAPGKGLKWISTISGSGGVKYYADSVKGRFTISRDNSGSILYLQMNRLRADDTAVYYCAKSQNPQLVFFDSFDMWGQGSMVTVSS
VL: QSVLTQAPSASAAPGQKVTISCSGSTSNIGNSYVSWYQQVPGTAPKLLIYEDNQRPSGIPDRFSGSKSGTSATLGITGLQTGDEADYYCGTWDNSLTEVVFGGGTKLTVL
Regarding B5, the results for the PRNT IC50 in test [1] and in test [2] were 0.0371 µg/mL and 0.0628 µg/mL, respectively.

B6: M3C07 (antibody, V domains shown)
VH: QLQLQESGPGLVKPWETLSLTCIVSGGSISRSTHYWGWIRQSPEMGLEWIGSIYYTGNTYYNPSFKSRVTISVDTSRNQLSLRVNSVSAADTARYYCARHETYDYGVFNIWGQGAMVTVSA
VL: EIVLTQSPGTLSLSPGERAILSCRASQTVSSDYLAWYQQRPGQAPRLLIYDASSRATGVPDRFRGSGSGTDFTLTISRLEPEDFGVYYCQQYGSPYTFGQGTKLEIK
As to B6, the PRNT IC50 in test [1] and in test [2] was > 10 µg/mL each time.

B7: M3D06 (antibody, V domains shown)
VH: EVQLVESGGGLVQPGGSLRLSCAASGFPFNFYWMHWVRQAPREGLVWVSRINNDGSSPNYADSVWGRFTISRDNAKNTLYLQMHSLRAEDTAVYYCARAARFGDYVDQWGQGTLVTVSS
VL: AIQLTQSPSSLSASMGDRVTITCRASQGISSAFAWYQQKPGKAPKLLIYDASTLESGVPSRFSGSGSGTDFTLTISSLQPEDFATYYCQQFNSYPLTFGGGTKVEIK
Take B7: the PRNT IC50 in test [1] and in test [2] was > 10 µg/mL each time.

B8: M1C11 (antibody, V domains shown)
VH: QVQLVQSGAEMKKPGSSVKVSCKTSGGSFSSYPVSWVRQAPGQGPEWMGGIIPLSGTTHYAQMFQGRVSITADDSTRTVFMELTSLRSGDTAVYYCARSGAPTYYYDSSGFHGGAFHFWGQGTVVTVSS
VL: DIVMTQSPDSLAVSLGERATINCKSSQSVLYSSNSKSYLAWYQQKPGQPPKLLIYWASSRESGVPDRFSGSGSGTDFTLTISSLQAEDVAVYYCQQFYTSPHTFGQGTKLEIKR
For the molecule B8, the PRNT IC50 in test [1] was determined as 5.92 µg/mL; in test [2] it was 0.444 µg/mL.

B9: M3E03 (antibody, V domains shown)
VH: QVQLVESGGGVVQPGRSLRLSCVASGFPFDSFAMHWVRQAPGKGLEWVAIVWYDGGDKFYSESVKGRFSISRDNSRNTVFLQMNSLRAEDTAVYYCARGMITFDYWGPGTLVTVSS
VL: EIVLTQSPGTLSLSPGERATLSCRASQNVDSSYLAWYQQKPGQAPRLLMYGASTRVAGIPDRFSGSGSGTDFTLTISRLEPEDFVVYYCQQYGTSPTWTFGQGTKVEIK
For B9, the PRNT IC50 in test [1] turned out to be 0.0199 µg/mL; in test [2] it was 0.0762 µg/mL.

B10: M2A09 (antibody, V domains shown)
VH: QVQLVQSGAGVRKPGSSVKVSCKASGGTFSNYIISWVRQAPGQGLEYIGRIIPIVGMEKYEEKFQGRVKITADESTSTVSMELTSLKSEDTATYYCATEGLESGYPPYLEHWGRGTLVIVSS
VL: EIVLTQSPGTLSLSPGERATLSCRTSQTVGAHLAWYQQKPGQSPRLLIYGASSRATGIPDRFSGSGSGTVFTLTINRLEPEDLAVYYCQQYGASPPTFGQGTKVEIK
Regarding B10, the PRNT IC50 in test [1] came out at 0.0133 µg/mL; in test [2], 0.0456 µg/mL.

B11: M4C02 (antibody, V domains shown)
VH: QLQLQESGPRLVKPSETLSLTCSVSGGSISSSSLYWGWIRQSPGKGLEWIGTIYYGGSSDYNPSLKSRLTMSVDTSKNHFSLRLSSVTAADTAVYYCARVGSPVTTTVWFDPWGQGTLVTVSS
VL: DIQMTQSPSSLAASIGDRVTITCRASQTISTYLNWYQQKPGKAPKLLIYAASTLQSGVPSRFSGSGSGTDFTLTISSLQPEDFATYYCQQTYSSLALTFGGGTKVEIR
Regarding B11, the results for the PRNT IC50 in test [1] and in test [2] were 0.577 µg/mL and 0.173 µg/mL, respectively.

B12: M4B04 (antibody, V domains shown)
VH: QVQLVESGGGVVQPGKSLRLSCAASGFTFRSYTMFWVRQAPGKGLEWVAIILHDGTNRYYTDSVKGRFTISRDNTKNTVYLQMNSLRPEDTAMYYCARESLEWMLDWGQGTLVTVSS
VL: EIVMTQSPATLSVSPGERATLSCRASQSLSGNLAWFQQKPGQAPRLLIYGTSTRATGIPARFSGSGSGTEFTLTISSLQSEDFAVYYCQQYNNWPPVFTFGPGTKVDIK
B12: the PRNT IC50 in test [1] stood at 4.59 µg/mL; in test [2], 1.97 µg/mL.

B13: M3D12 (antibody, V domains shown)
VH: QVQLQESGPGLVKPSQTLSLTCTVSGASVSSEYYYWSWIRQPPGKGLEWIGYIYHNGDTYYNPSLKGRGIISMDTSKNQFSLKLISVTAADTAVYYCARLAVAGVTGFHYWGLGTLVTVSS
VL: EIVLTQSPDTLSLSPGERATLSCRASRSVRNYLAWYQQKPGQAPRLLIYDASNRAPGIPARFSGSGSETDFTLTISSLEPEDFAVYYCQQRSNWGLTFGGGTKVEIK
With B13, the PRNT IC50 in test [1] came to 0.0231 µg/mL; in test [2], 0.0145 µg/mL.

B14: M2B07 (antibody, V domains shown)
VH: EVQLVESGGGLVRPGGSLRLSCAASGFTFNNYWMHWVRQAPGKGLVWVSHVKSDGSITNYADSVKGRFTISRDNAKNTLYLEMSSLRVEDTAVYYCARESRPYDPLTGSHPDAFDIWGQGTMVTVSS
VL: DIVMTQSPDSLAVSLGERATINCKSSESIFYYSNSKSYLAWYRQKPGQPPKLLIYWASTRESGVPDRFSGSGSGTDFTLTISSLQPEDVAVYYCQQYYTNPRTFGQGTRLEIK
B14: the PRNT IC50 in test [1] stood at 0.625 µg/mL; in test [2], 0.426 µg/mL.

B15: M2D10 (antibody, V domains shown)
VH: QVQLVQSGAEVKKPGASVRISCKPSGRAFLTYDINWVRQAPGQGLEWMAGMNPGSGNAAYAPKFQGRLTMIRNTSISTDYLELSSLTSEDTAVYYCARGEVSMRWRWLDPWGQGSLVTVTS
VL: DIQMTQSPSSLSASVGDRVTITCRASQTISNFLNWYQQKPGRAPKVLIYAALNLQSGVPSRFRGSGSGTDFTLTINNLQPEDFAIYYCQQSYITPWTFGQGTKVEIK
B15: the PRNT IC50 in test [1] turned out to be 0.759 µg/mL; in test [2], 1.34 µg/mL.

B16: M2E06 (antibody, V domains shown)
VH: EVQLVESGGDLVQPGGSLRLSCEASAFTFSDYAMTWVRQAPGKGLEWVSSINTSGGRTYYADSVKGRFTISRDNSKNTLYLQMKSLRAEDTAVYFCARFFYVMDVWGQGTTVTVSS
VL: AIQMTQSPSSLSASVGDRVTITCRASQGVRNDLGWYQQKPGKAPKLLINAASGLQSGVPSRFSGSGSDTDFTLTISSLQPEDFATYYCLQVYSYPFTFGPGTKVDIK
In the case of B16, the figures for the PRNT IC50 in test [1] and in test [2] were 0.105 µg/mL and 0.139 µg/mL, respectively.

B17: M4A12 (antibody, V domains shown)
VH: QLQESGSGPGLVKPSETLSLICNASGDSVTRNAYYWGWLRQPPGKGLEWIGIMYYSGSTFYNPSLKSRLTISVDTSKNQFSLKLRSVTAADTATYYCGEATLTTYDAFDVWGHGTMVTVSS
VL: QSVLTQPPSVSAAPGQRVTISCSGGNSNIGKNYVSWYQQVPGTAPKLLIYENNKRPSGIPDRFSGSKSGTSATLGITGLQTGDEADYYCGAWDSSLNGVLFGGGTRLTVL
For B17, the PRNT IC50 was > 10 µg/mL in test [1] and 0.0744 µg/mL in test [2].

B18: M2D07 (antibody, V domains shown)
VH: QVQLVESGGAVVQPGRSLRLSCAASGFTFTSFSMHWVRQAPGRGLEWVAVISHDGIIKYYADSVKGRFTISRDNSKNTVFLQMNSLRPEDTAVFYCARDFPGSRGFFRYYFDHWGQGTLVTVSS
VL: DIQMTQSPSSLSASVGGSVTITCRVDQSISNDLHWYQQKPGKAPKLLISSASSLQSGVPSRFSGSGSGTDFTLTITSLQPEDFATYYCQQSYTTPPLFGQGTTLEIK
As for B18, the figures for the PRNT IC50 in test [1] and in test [2] were 1.07 µg/mL and 2.5 µg/mL, respectively.

B19: M4A08 (antibody, V domains shown)
VH: EVQLVESGGALVRPGGSLRVSCEASGFNFRTHWMHWVRQAPGKGLVWVARTNGDGSVTNYADSVKGRFTFFRDNAKNTLFLQMTSLRVDDTAVYYCARERLDYSSTRGHFPGDFDSWGQGTLVTVSS
VL: DIVMTQSPDSLAVSLGERATINCKSSESVLYTSNSKNYLAWYQQKPGHPPKVLIYWASTRESGVPDRFSGSGSGTDFSLSISSLQAEDVAVYYCQQYFTIPRTFGQGTKVEIK
In the case of B19, the PRNT IC50 stood at 0.136 µg/mL in test [1] and 0.344 µg/mL in test [2].
